Test results: patent US12329823B2 (The Scripps Research Institute, priority 2021, dated 2025)
Read-outs that look alike come from different tables or passages of the source.

Key:
in vivo = conditions: dog
human GLP-1R = human GLP-1R (Homo sapiens, UniProt P43220); experiment: In vitro receptor activation reporter assay (CRE-Luc, HEK293-GLP-1R-CRE cells; receptor-mediated cAMP synthesis); format: cell-based; set-up: expressed in transfected cells; host or cells: HEK293 (CRE-HEK293, HEK293-GLP-1R-CRE)
Experimental: (§2) HEK293 cells were infected with lentivirus encoding firefly luciferase gene under the control of cAMP responsive element (CRE) promoter (Qiagen, The Netherlands) and then were selected using 1 μg mL^−1 puromycin (Life Technologies, Carlsbad) for 1 week. The surviving cells (referred to as CRE-HEK293) were expanded and then transfected with a G418 selective mammalian expression plasmid encoding human GLP-1R or GIPR. In brief, GLP-1R or GIPR plasmid was transfected into CRE-HEK293 cells using Lipofectamine 2000 and selected with 400 μg mL^−1 Geneticin (Life Technologies, Carlsbad, CA). Single colony stable cell line overexpressing CRE-luciferase and GLP-1R or GIPR (HEK293-GLP-1R-CRE or HEK293-GIPR-CRE) was then established for in vitro activity assay.
HEK293 cells were infected with lentivirus encoding firefly luciferase gene under the control of cAMP responsive element (CRE) promoter (Qiagen, The Netherlands) and then were selected using 1 μg/mL puromycin (Life Technologies, Carlsbad) for 1 week. The surviving cells (referred to as CRE-HEK293) were expanded and then transfected with a G418 selective mammalian expression plasmid encoding human GLP-1R. In brief, GLP-1R plasmid was transfected into CRE-HEK293 cells using Lipofectamine 2000 and selected with 400 μg/mL Geneticin (Life Technologies, Carlsbad, CA). Single colony stable cell line overexpressing CRE-luciferase and GLP1R was then established for in vitro activity assay.

human GIPR = target: T1, human GIPR (Homo sapiens, UniProt P48546); experiment: In vitro receptor activation reporter assay (CRE-Luc, HEK293-GIPR-CRE cells; receptor-mediated cAMP synthesis); format: cell-based
T1 construct: expressed in transfected cells; host or cells: HEK293 (CRE-HEK293, HEK293-GIPR-CRE)
T1 sequence (P48546 22-466): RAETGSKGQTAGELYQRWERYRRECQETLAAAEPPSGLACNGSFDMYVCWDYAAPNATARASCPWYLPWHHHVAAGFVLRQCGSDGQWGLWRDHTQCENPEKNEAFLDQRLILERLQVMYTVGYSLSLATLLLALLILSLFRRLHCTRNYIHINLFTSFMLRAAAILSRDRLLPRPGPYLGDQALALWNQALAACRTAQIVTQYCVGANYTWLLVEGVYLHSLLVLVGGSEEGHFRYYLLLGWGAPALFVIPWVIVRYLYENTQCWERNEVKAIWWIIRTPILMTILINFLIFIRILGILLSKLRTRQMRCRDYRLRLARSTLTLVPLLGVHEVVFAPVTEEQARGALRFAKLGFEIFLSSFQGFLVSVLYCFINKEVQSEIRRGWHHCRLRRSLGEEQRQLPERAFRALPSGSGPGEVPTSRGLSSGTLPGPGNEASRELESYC
Experimental: as §2

[1] = Pharmacokinetics in CD-1 mouse, I.V. or S.C. 1 mg/kg, plasma concentration by LC-MS; conditions: for AUC(0-inf): AUCINF; for MRT last: MRTLAST; for half-life: T1/2, Table 14;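 for all read-outs here: peptide levels in plasma quantified by LC-MS across multiple sampling times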
Experimental: The peptide plasma concentration at various time points was determined using LC-MS.

cynomolgous monkey GLP1R = cynomolgous monkey GLP1R (Macaca fascicularis, UniProt F8V479); experiment: In vitro potency, cynomolgous monkey GLP1R activation (receptor-mediated cAMP synthesis); format: cell-based; conditions: Table 12; read-out: In Vitro Potency GLP1R EC50, Cyno
Experimental: (§1) GLP-1R-CRE or HEK293-GIPR-CRE cells were seeded in 384-well plates at a density of 5000 cells per well and cultured for 18 h in DMEM with 10% FBS at 37° C. and 5% CO2. Cells were treated with peptides in a dose dependent manner for 24 h, and receptor activation was reported by luminescence intensities, using One-Glo (Promega, WI) luciferase reagent following manufacturer's instruction. The EC50 of each peptide was determined using GraphPad Prism 6 software (GraphPad, San Diego, CA). Results are depicted in FIGS. 6A-6B, FIGS. 7A-7B, FIGS. 8A-8B, FIGS. 9A-9B, and Tables 7-12. Measurements of peptide conjugate potency were expressed as half maximal effective concentration (EC50) values.

mouse GLP1R = target: T2, mouse GLP1R (Mus musculus, UniProt O35659); experiment: In vitro potency, mouse GLP1R activation (receptor-mediated cAMP synthesis); format: cell-based; conditions: Table 12
T2 sequence (O35659 22-463): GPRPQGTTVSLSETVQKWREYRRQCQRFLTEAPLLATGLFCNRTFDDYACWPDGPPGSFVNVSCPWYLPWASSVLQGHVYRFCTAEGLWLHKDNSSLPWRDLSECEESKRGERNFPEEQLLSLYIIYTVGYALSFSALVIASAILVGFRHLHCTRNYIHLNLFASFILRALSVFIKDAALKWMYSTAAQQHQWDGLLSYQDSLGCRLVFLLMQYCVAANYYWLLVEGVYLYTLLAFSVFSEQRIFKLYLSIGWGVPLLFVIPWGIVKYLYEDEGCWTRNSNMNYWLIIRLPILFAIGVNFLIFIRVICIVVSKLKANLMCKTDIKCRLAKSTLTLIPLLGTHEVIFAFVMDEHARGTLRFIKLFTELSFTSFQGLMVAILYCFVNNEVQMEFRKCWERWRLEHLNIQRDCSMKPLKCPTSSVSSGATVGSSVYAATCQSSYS
Experimental: as §1

[2] = mouse, in vivo, iv, 1 mg/kg, Table 14, IV 1 mg/kg
[3] = mouse, in vivo, sc, 1 mg/kg, Table 14, SC 1 mg/kg

Chain of human GLP-1R (P43220 24-463): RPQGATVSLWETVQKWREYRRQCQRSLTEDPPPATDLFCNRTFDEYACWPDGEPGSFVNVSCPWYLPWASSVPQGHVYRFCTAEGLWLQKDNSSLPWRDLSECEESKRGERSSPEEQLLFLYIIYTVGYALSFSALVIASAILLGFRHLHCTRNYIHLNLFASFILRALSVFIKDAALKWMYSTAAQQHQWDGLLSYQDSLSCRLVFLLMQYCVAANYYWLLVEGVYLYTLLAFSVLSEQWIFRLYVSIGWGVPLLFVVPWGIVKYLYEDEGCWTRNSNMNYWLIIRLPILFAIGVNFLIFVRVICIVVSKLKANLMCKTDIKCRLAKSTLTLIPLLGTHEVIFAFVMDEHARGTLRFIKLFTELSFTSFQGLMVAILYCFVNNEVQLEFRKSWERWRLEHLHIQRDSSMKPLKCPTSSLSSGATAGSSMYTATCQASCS
Chain of cynomolgous monkey GLP1R (F8V479 24-463): as the sequence (P43220 24-463) above, with S112N, F120S, S202G, L205V, L237F, W241R, I249V counted along it

## CC[C@H](C)[C@H](NC(=O)[C@H](CC(C)C)NC(=O)[C@H](Cc1c[nH]c2ccccc12)NC(=O)[C@@H]1CSCC(=O)NCCN(C(=O)CCC(=O)NCCOCCOCCC(=O)NCCOCCOCCC(=O)NCCCC[C@H](NC(=O)CCCCCCCCCCCCCCCCCCC(=O)O)C(=O)O)CCNC(=O)CSC[C@H](NC(=O)[C@H](CCCCN)NC(=O)[C@H](CC(=O)O)NC(=O)[C@H](CC(C)C)NC(=O)[C@H](Cc2ccc(O)cc2)NC(=O)[C@@H](NC(=O)[C@H](CO)NC(=O)[C@H](Cc2ccc(O)cc2)NC(=O)[C@H](CC(=O)O)NC(=O)[C@H](CO)NC(=O)[C@@H](NC(=O)[C@H](Cc2ccccc2)NC(=O)[C@@H](NC(=O)CNC(=O)[C@H](CCC(=O)O)NC(=O)C(C)(C)NC(=O)[C@@H](N)Cc2ccc(O)cc2)[C@@H](C)O)[C@@H](C)O)[C@@H](C)CC)C(=O)N[C@@H](C)C(=O)N[C@@H](C)C(=O)NC(C)(C)C(=O)N[C@@H](CCC(=O)O)C(=O)N[C@@H](Cc2ccccc2)C(=O)N[C@@H](C(C)C)C(=O)N1)C(=O)N[C@@H](C)C(=O)NCC(=O)NCC(=O)N1CCC[C@H]1C(=O)N[C@@H](CO)C(=O)N[C@@H](CO)C(=O)NCC(=O)N[C@@H](C)C(=O)N1CCC[C@H]1C(=O)N1CCC[C@H]1C(=O)N1CCC[C@H]1C(=O)N[C@@H](CO)C(N)=O [mCMV268]
In vivo; iv
  AUC(0-t): 59.2 µg·h/mL
  Cmax: 8500 ng/mL
  T last: 168 h
  Tmax: 0.693 h
  Vd: 0.0957 L/kg
  clearance: 1.09 mL/h/kg
  half-life: 63.9 h
In vivo; po
  AUC(0-t): 1.7 µg·h/mL
  Cl: 1300 mL/h/kg
  Cmax: 31.4 ng/mL
  T last: 144 h
  Tmax: 1 h
  bioavailability: 0.27%, 0.27%,
  half-life: 77.8 h
Human GLP-1R; In Vitro Potency GLPIR EC50, 10% FBS, Table 11, human, 10% FBS
  EC50: 1.96 ± 0.46 nM
Human GLP-1R; unnumbered table, average of runs, read-out: EC50 GLP1R average
  EC50: 0.03 nM
Human GLP-1R; unnumbered table, run 02/19, read-out: EC50 GLP1R 02/19
  EC50: 0.02 nM
Human GLP-1R; unnumbered table, run 3/25, read-out: EC50 GLP1R 3/25
  EC50: 0.03 nM
Human GLP-1R; unnumbered table, run 03/26, read-out: EC50 GLP1R 03/26
  EC50: 0.03 nM
Human GIPR; In Vitro Potency GIPR EC50, 10% FBS, Table 11, human, 10% FBS
  EC50: 0.09 ± 0.02 nM
Human GIPR; Table 11, human, No Serum, read-out: In Vitro Potency GIPR EC50, No Serum
  EC50: 0.01 ± 0.01 nM
Human GIPR; unnumbered table, average of runs, read-out: EC50 GIPR average
  EC50: 0.04 nM
Human GIPR; unnumbered table, run 02/19, read-out: EC50 GIPR 02/19
  EC50: 0.05 nM
Human GIPR; unnumbered table, run 03/25, read-out: EC50 GIPR 03/25
  EC50: 0.04 nM
Human GIPR; unnumbered table, run 03/26, read-out: EC50 GIPR 03/26
  EC50: 0.03 nM
[1]; CD-1, mouse, plasma, sc, 1 mg/kg
  bioavailability: 64%
[1]; Table 14, SC 1 mg/kg
  Cl: 4.8 mL/h/kg
  Vd: 0.087 L/kg
[1]; mouse, in vivo, iv, 1 mg/kg
  clearance: 3 mL/h/kg
[1]; mouse, in vivo, iv, 1 mg/kg, AUC0-24, Table 14, IV 1 mg/kg
  AUC(0-t): 204 µg·h/mL
[1]; [2]
  AUC(0-inf): 327 µg·h/mL
  Cmax: 34000 ng/mL
  MRT last: 19.5 h
  Tmax: 0.5 h
[1]; mouse, in vivo, iv, 1 mg/kg, AUCLAST, Table 14, IV 1 mg/kg
  AUC(0-t): 315 µg·h/mL
[1]; mouse, in vivo, iv, 1 mg/kg, IV 1 mg/kg
  half-life: 14.8 h
[1]; mouse, in vivo, iv, 1 mg/kg, Vd, Table 14, IV 1 mg/kg
  Vd: 0.067 L/kg
[1]; mouse, in vivo, sc, 1 mg/kg, AUC0-24, Table 14, SC 1 mg/kg
  AUC(0-t): 92.1 µg·h/mL
[1]; [3]
  AUC(0-inf): 208 µg·h/mL
  Cmax: 4780 ng/mL
  MRT last: 27.8 h
  Tmax: 24 h
[1]; mouse, in vivo, sc, 1 mg/kg, AUCLAST, Table 14, SC 1 mg/kg
  AUC(0-t): 200 µg·h/mL
[1]; mouse, in vivo, sc, 1 mg/kg, SC 1 mg/kg
  half-life: 12.8 h
Cynomolgous monkey GLP1R
  EC50: 0.22 nM
Mouse GLP1R
  EC50: 0.26 nM
